The target of data set [1] is Tau protein (in bone marrow derived macrophages), P10637.
The next data set has as its target T1, NFATc4.
T1 sequence (Q14934 1-902, species assumed, looked up): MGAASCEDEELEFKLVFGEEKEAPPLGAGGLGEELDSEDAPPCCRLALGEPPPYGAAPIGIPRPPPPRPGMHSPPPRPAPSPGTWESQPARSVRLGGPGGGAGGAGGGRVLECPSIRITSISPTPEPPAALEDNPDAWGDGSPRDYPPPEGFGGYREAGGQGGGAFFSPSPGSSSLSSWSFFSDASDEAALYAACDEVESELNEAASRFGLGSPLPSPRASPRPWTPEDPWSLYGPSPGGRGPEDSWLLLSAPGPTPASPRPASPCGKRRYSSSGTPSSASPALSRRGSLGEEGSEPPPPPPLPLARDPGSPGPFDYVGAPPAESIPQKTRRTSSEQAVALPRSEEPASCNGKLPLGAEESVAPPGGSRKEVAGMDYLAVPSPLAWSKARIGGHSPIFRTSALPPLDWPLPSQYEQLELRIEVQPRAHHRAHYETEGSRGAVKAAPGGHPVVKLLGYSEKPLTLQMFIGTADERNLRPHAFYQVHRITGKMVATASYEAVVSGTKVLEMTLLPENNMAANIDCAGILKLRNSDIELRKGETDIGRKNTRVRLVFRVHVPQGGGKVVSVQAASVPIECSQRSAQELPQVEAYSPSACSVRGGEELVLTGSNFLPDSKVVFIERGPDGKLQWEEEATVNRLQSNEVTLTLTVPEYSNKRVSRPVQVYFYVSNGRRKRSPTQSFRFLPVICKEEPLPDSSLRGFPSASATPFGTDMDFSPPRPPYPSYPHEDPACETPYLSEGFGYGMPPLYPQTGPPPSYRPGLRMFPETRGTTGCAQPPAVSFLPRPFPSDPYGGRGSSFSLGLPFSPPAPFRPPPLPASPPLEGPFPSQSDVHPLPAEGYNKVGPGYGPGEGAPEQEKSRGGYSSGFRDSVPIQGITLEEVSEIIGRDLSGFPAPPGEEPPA

For data set [2], the target named is Rac1 (murine BMDM cells), P63001.

Sequence of Tau protein (in bone marrow derived macrophages), P10637 (P10637 whole entry, looked up): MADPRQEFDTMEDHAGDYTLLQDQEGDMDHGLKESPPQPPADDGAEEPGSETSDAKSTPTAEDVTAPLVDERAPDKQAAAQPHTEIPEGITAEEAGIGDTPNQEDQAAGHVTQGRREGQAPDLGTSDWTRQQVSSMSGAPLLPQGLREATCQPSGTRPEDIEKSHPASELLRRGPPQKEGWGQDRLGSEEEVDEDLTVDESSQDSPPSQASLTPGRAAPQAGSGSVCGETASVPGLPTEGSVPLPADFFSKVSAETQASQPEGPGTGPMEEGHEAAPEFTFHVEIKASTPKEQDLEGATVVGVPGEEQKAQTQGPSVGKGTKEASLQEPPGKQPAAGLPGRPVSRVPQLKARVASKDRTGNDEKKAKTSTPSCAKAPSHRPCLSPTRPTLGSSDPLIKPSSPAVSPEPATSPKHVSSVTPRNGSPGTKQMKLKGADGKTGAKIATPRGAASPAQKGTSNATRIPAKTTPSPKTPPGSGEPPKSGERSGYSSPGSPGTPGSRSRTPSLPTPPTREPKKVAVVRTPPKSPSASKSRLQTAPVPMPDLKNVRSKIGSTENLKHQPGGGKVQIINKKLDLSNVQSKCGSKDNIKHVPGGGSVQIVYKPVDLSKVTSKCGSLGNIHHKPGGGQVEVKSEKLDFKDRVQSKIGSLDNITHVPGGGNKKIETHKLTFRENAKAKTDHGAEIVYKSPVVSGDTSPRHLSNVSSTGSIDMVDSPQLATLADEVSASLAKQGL

B1: murine IRAK-1 (endogenous, wild type BMDM cells) (protein)
chain: MAGGPGPGEPVVPGAQHFLYEVPPWVMCRFYKVMDALEPADWCQFAALIVRDQTELRLCERSEQRTASVLWPWINRNARVADLVHILTHLQLLRARDIITAWHPPAPVVPPSTAAPRPSSISAGSEAGDWSPRKLQSSASTFLSPAFPGSQTHSESELLQVPLPVSLGPPLPSSAPSSTKSSPESPVSGLQRAHPSPFCWPFCEISQGTCNFSEELRIGEGGFGCVYRAVMRNTTYAVKRLKEEADLEWTMVKQSFLTEVEQLSRFRHPNIVDFAGYCAESGLYCLVYGFLPNGSLEDQLHLQTQACSPLSWPQRLDILLGTARAIQFLHQDSPSLIHGDIKSSNVLLDERLMPKLGDFGLARFSRFAGAKASQSSTVARTSTVRGTLAYLPEEYIKTGRLAVDTDTFSFGVVILETLAGQRAVRTQGAKTKYLKDLIEDEAEEAGVTLKSTQPTLWVGVATDAWAAPIAAQIYKKHLDSRPGPCPPQLGLALAQLACCCMHRRAKKRPPMTQVYKRLEGLQAGPPWELEVAGHGSPSPQENSYMSTTGSAQSGDEPWQPLVVTTRAPAQAAQQLQRSPNQPVESDESVPGLSATLHSWHLTPGSHPSPASFREASCTQGGTTRESSVRSSPGFQPTTMEGSPTGSSSLLSSEPPQIIINPARQKMVQKLALYEEGVLDSLQLLSSGFFPGLDLEPEKSQGPEESDEFQS
B1: the “phosphorylated Tau (PHF-Tau) by Western blot after BLP (Pam3CSK4) treatment” value in data set [1] is reported as “stimulation of wild type cells led to increased Tau phosphorylation. In contrast, Tau phosphorylation is ablated in IRAK-1 deficient cells”. For the same protein, the “phosphorylated NFATc4 (p-NFATc4) by Western blot” value with NFATc4 is listed as “p-NFATc4 was found in the wild type cells (Panel B, lanes 1-3) whereas significantly less was found in the IRAK-1 deficient cells”. In addition, in data set [2], the “Rac1 activity (PBD pull down assay) after LPS treatment for 5 min” value was “relative Rac1 activity is significantly higher in LPS-induced wild type macrophages and not in IRAK-1 deficient macrophages”.

These data come from patent US20100189695.
